Consider three substances from patent US10160993B2, “Tyrosine kinase biosensors and methods of use” (Purdue Research Foundation, priority 2014, dated 2018).

Common to all, as to type: biochemical
The target of one assay is Lyn (Homo sapiens, UniProt P07948). The experiment in a line: ELISA specificity assay, phosphorylation by Lyn. Conditions: conditions similar to ALK ELISA. On the procedure: (§1) Referring now to FIG. 1 which illustrates ALAStide-A (SEQ. ID NO. 1) and ALAStide-B (SEQ. ID NO. 2) being phosphorylated by ALK kinase in vitro, the results are obtained by an enzyme-linked immunosorbent assay (ELISA). […] Total reaction volume is 50 μL, and reaction temperature is set between 35-38° C. At selected time points, 5 μL, sample was taken out and quenched in 20 μL 40 mM EDTA solution. The quenched samples were then used to perform ELISA assay.
(§2) The specificity of the ALK-specific biosensors, ALAStide-A and ALAStide-B is shown in an ELISA assay, with YFF peptide used as a positive and negative control. The ALK-specific biosensors were assayed for phosphorylation activity against ALK, Lyn, Abl, and Csk. YFF peptide, whose kinase specificity (as reported in Biochemistry 44, 8533-8542, 2005) is used as a reference. The experimental condition may be similar to those described for the ELISA assay above.

A further assay concerns the target Csk (Homo sapiens, UniProt P41240). The experiment in a line: ELISA specificity assay, phosphorylation by Csk. Particulars: conditions similar to ALK ELISA. The protocol:
as §1, §2
In general terms: An ELISA detects its analyte on a solid surface through an enzyme-linked reagent.

In another assay the target is ALK kinase (Homo sapiens, UniProt Q9UM73). The assay can be described thus: ELISA assay of peptide phosphorylation by ALK kinase in vitro. Conditions: 25 μM peptides, 0.1 unit kinase, 100 μM ATP, 10 mM Mg2+, pH 7.5, 35-38° C. On the procedure:
as §1

Another assay addresses Abl (Homo sapiens, UniProt P00519). The assay can be described thus: ELISA specificity assay, phosphorylation by Abl. Particulars: conditions similar to ALK ELISA. On the procedure:
as §1, §2

No end group written: not given here. *: point of attachment. Biotin = O=C1N[C@H]2[C@H](CS[C@H]2CCCCC(=O)*)N1

Abl, sequence (P00519 whole entry, species assumed): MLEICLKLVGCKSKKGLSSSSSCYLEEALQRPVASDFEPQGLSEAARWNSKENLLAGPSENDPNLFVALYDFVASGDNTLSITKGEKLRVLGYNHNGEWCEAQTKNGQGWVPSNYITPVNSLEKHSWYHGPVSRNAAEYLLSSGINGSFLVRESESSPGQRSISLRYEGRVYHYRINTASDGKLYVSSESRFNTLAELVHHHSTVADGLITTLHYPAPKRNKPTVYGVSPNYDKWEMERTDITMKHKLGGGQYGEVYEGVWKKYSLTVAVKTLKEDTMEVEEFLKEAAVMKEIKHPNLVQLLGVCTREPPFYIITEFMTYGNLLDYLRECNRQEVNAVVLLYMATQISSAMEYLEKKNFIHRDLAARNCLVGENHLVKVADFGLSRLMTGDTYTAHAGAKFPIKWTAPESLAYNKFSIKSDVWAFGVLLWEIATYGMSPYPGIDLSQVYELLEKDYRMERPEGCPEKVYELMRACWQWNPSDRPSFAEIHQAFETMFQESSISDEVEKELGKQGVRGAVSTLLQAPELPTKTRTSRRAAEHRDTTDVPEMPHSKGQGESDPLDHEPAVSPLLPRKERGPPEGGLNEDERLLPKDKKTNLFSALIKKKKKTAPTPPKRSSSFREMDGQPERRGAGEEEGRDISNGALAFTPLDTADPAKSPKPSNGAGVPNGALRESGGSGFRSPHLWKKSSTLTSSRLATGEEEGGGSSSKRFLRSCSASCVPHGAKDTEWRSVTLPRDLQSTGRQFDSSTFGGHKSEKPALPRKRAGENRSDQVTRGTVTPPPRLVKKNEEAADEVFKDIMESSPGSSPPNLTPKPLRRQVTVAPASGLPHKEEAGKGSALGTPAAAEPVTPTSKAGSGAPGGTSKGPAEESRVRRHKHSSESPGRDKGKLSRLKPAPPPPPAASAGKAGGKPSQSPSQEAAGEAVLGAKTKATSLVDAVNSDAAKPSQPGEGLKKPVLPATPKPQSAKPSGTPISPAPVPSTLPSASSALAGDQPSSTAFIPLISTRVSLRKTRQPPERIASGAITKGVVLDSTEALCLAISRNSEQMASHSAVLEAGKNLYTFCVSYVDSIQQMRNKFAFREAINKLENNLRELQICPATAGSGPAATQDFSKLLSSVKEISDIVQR
Lyn, sequence (P07948 whole entry, species assumed): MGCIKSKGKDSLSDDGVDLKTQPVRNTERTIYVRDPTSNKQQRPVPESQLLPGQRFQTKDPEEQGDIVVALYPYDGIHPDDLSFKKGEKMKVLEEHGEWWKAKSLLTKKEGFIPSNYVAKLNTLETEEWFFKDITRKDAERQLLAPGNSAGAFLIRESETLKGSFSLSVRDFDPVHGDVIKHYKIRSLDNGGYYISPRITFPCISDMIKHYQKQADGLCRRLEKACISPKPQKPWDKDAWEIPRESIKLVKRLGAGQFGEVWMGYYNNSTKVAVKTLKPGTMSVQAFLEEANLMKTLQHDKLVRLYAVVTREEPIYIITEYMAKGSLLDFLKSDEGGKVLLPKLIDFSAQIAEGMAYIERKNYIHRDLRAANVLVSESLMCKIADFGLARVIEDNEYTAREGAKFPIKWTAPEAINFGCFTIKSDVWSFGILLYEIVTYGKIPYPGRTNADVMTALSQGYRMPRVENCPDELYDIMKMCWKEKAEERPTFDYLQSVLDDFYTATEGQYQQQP
Csk, sequence (P41240 whole entry, species assumed): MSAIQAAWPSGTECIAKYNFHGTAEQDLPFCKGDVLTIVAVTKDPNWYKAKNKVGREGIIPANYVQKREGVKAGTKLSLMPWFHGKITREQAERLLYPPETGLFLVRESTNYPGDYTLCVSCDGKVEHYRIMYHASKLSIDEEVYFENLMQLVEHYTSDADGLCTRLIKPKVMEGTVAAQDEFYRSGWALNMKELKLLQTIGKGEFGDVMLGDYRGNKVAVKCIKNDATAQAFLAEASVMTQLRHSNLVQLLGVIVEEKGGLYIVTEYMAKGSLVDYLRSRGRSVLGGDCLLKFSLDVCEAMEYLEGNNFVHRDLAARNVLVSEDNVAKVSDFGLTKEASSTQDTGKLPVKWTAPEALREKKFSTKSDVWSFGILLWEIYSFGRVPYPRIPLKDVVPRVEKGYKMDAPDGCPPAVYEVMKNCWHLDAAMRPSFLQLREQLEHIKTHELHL
ALK kinase, sequence (Q9UM73 19-1620): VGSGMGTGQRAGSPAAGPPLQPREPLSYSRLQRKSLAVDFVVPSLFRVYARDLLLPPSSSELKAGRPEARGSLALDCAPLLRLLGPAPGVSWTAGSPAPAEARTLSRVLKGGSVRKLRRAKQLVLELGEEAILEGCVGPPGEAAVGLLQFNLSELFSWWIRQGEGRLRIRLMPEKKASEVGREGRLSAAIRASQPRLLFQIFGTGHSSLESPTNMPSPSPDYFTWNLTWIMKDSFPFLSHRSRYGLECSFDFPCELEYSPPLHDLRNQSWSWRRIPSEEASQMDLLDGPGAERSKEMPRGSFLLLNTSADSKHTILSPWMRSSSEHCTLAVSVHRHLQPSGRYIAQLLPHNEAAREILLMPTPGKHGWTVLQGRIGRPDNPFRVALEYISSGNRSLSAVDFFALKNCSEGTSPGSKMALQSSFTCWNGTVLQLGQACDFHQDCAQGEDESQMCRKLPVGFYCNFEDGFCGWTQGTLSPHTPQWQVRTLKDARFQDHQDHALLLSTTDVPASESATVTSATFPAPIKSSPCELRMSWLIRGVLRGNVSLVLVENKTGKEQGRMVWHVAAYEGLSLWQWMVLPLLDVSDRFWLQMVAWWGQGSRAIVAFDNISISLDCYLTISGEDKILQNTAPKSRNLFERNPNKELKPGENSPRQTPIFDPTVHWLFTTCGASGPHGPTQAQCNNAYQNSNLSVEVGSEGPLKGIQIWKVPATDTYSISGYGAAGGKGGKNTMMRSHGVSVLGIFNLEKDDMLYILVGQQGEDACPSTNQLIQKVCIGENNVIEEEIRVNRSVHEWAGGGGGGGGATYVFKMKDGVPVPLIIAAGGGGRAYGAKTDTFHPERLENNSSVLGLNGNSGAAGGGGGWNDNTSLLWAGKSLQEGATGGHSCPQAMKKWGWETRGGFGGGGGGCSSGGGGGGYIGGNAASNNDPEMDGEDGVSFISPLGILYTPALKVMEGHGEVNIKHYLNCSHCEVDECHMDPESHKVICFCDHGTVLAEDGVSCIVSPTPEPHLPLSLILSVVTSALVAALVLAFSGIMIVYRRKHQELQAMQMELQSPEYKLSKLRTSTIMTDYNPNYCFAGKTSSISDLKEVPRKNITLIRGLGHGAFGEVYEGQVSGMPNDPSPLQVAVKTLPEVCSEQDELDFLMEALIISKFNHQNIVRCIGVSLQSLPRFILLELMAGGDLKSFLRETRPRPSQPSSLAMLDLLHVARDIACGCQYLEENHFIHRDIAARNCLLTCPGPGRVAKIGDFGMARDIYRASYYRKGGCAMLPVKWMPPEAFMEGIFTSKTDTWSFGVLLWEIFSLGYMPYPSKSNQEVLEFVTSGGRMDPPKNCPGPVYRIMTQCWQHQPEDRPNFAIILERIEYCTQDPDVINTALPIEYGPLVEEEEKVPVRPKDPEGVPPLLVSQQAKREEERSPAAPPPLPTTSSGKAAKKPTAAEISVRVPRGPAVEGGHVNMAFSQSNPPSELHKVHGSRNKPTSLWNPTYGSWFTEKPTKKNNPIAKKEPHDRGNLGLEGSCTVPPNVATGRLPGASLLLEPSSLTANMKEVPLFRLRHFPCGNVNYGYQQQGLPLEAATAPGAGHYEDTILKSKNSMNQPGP

“FDMDRDIYRMSFFRKGGKbGG (FDMDRDIYRMSFFRKGGK(Biotin)GG) [ALAStide-A, ALK-specific biosensor peptide; Kb is biotinylated lysine]”: the “phosphorylation by Lyn (ELISA)” value with Lyn is on record as “not phosphorylated”. Besides, in the assay with Csk, the “phosphorylation by Csk (ELISA)” value is listed as “not phosphorylated”. In addition, the “phosphorylation by ALK kinase (ELISA), compared with YFF peptide” value with ALK kinase is “higher phosphorylation activity than YFF and ALAStide-B”. Moreover, in the assay with Abl, the “phosphorylation by Abl (ELISA)” value was “not phosphorylated”.

Regarding “FDMDRDIYTNTFFRKGGKbGG (FDMDRDIYTNTFFRKGGK(Biotin)GG) [ALAStide-B, ALK-specific biosensor peptide; Kb is biotinylated lysine]”, the “phosphorylation by Lyn (ELISA)” value with Lyn is listed as “not phosphorylated”. The “phosphorylation by Csk (ELISA)” value with Csk is given as “not phosphorylated”. Moreover, the “phosphorylation by ALK kinase (ELISA), compared with YFF peptide” value with ALK kinase is “comparable phosphorylation level with YFF peptide”. For the same substance, in the assay with Abl, the “phosphorylation by Abl (ELISA)” value is reported as “not phosphorylated”.

“FGMARDIYRASFFRKGGKbGG (FGMARDIYRASFFRKGGK(Biotin)GG) [YFF peptide, known peptide substrate of ALK in the literature, reference compound]”: the “phosphorylation by Lyn (ELISA)” value with Lyn is recorded as “lack of affinity”. Besides, the “phosphorylation by Csk (ELISA)” value with Csk is reported as “lack of affinity”. Moreover, the “phosphorylation by Abl (ELISA)” value with Abl is “lack of affinity”.
